Results taken from patent US20050244864A1, “Development and use of fluorescent probes of unbound analytes” (priority 2004, published 2005).

Legend:
Assay type in all cases: binding
[1] = Probe fluorescence ratio response to arachidonate:BSA complex, relative to ADIFAB2 (ΔR/ΔRAD2); conditions: fluorescence response (R-Ro) relative to ADIFAB2; arachidonate
Protocol: (§1) The intensity ratio (“R” value) for a given probe is determined. The ratio is calculated using the following formula: R=Fλ1/Fλ2 wherein, Fλ1, is the measured fluorescence intensities (intensity of sample with probe present minus intensity of sample without probe present) at wavelength 1 and Fλ2 is the measured fluorescence intensities (intensity of sample with probe present minus intensity of sample without probe present) at wavelength 2. Then, for a given probe, ΔR, the difference in R value between the measurement in the presence of the analyte and in the absence of the analyte, is calculated as follows: ΔR=R+analyte−R0 The ΔR value for a given probe is then compared to a reference probe, for example, ADIFAB or ADIFAB2, by ΔR/ΔRreference. This value is an indication of how dissimilar the new probe (derived by mutation of the template) is to the reference. By this method, probes with new and useful characteristics may be identified. Measurements of fluorescence intensities are obtained using standard techniques.
(§2) Mutant probes were screened in 96-well plates by fluorescence response to five fatty acids: arachidonate, linolenate, linoleate, oleate, and palmitate. Each fatty acid was prepared as a complex with BSA by slow addition of 50 mM stocks of fatty acid sodium salts at pH 11 to 600 μM BSA in HEPES buffer. During the formation of complexes, 15 μL aliquots were periodically measured with the reference probe, ADIFAB2, to determine the ΔR value upon excitation at 375 nm and fluorescence emission at 550 and 457 nm using a Fluorolog-3 spectrofluorometer (Jobin Yvon) (Richieri et al, Molecular and Cellular Biochemistry (1999), 192:87-94 & Richieri et al, J. Biol. Chem. (1996), 271:31068-31074). Complexes were prepared such that the final ΔR was approximately 0.4 which correspond to [FFAu] ranging from 100 to 1000 nM depending on FFA type. These complexes buffer or clamp the FFAu levels at fixed values and therefore ensure the accurate comparison of different probes with the same FFAu concentrations. In contrast, addition of FFAu alone (i.e. uncomplexed FFA) introduces considerable uncertainty in comparing different probes because the FFAu level will be affected by binding to the dispensing device, the walls of the multi-well plates and to the probe itself. Thus, the terms “buffer” and “clamp” as used in this particular context herein are taken to mean the ability of a carrier macromolecule to complex with an unbound metabolite so that the unbound metabolite is presented accurately for measurement purposes and is prevented from non-specific binding such as binding to laboratory apparatus.
(§3) Plates were prepared and read in two stages. First, complexes and fatty acid free BSA were diluted to 6 μM BSA in HEPES and added to the 96-well plate at 300 μL per well. A MultiProbe II HT (Perkin Elmer) (an automated liquid handling system) was used to facilitate plate preparation for high throughput screening, but any automated or manual pipetting system will suffice. The background fluorescence was then measured at the same wavelengths as used for ADIFAB2 using a Fluorolog-3 spectrofluorometer with an external Micromax 384 fluorescence plate reader (Jobin Yvon). In the second stage, 30 μL aliquots of the mutant probes were added to multiple wells of the plate, one for each fatty acid and one with fatty acid free BSA only, and the fluorescence intensity at each wavelength was again measured on the plate reader. After subtraction of the background fluorescence, the fluorescence ratio of each well was calculated.
(§4) The fluorescence response was quantitatively compared to ADIFAB2 to search for changes in magnitude and fatty acid profile; for example the response to one fatty acid relative to another. For each probe the ratio differences (AR) between wells with each fatty acid compared to a corresponding well with fatty acid free BSA were recorded. […]

[2] = Probe fluorescence ratio response to palmitate:BSA complex, relative to ADIFAB2 (ΔR/ΔRAD2); conditions: fluorescence response (R-Ro) relative to ADIFAB2; palmitate
Protocol: as §1, §2, §3, §4

[3] = Probe fluorescence ratio response to linoleate:BSA complex, relative to ADIFAB2 (ΔR/ΔRAD2); conditions: fluorescence response (R-Ro) relative to ADIFAB2; linoleate
Protocol: as §1, §2, §3, §4

[4] = Probe fluorescence ratio response to oleate:BSA complex, relative to ADIFAB2 (ΔR/ΔRAD2); conditions: fluorescence response (R-Ro) relative to ADIFAB2; oleate
Protocol: as §1, §2, §3, §4

[5] = Probe fluorescence ratio response to linolenate:BSA complex, relative to ADIFAB2 (ΔR/ΔRAD2); conditions: fluorescence response (R-Ro) relative to ADIFAB2; linolenate
Protocol: as §1, §2, §3, §4

B1: L1P7 B11: acrylodan-labeled rI-FABP mutein: Y14 I, L38 I, L72 V, Y117 wt (protein, UniProt P02693 2-132, looked up, variant Y14I L38I L72V)
Fatty acid-binding protein, …: AFDGTWKVDRNENIEKFMEKMGINVVKRKLGAHDNLKITITQEGNKFTVKESSNFRNIDVVFELGVDFAYSVADGTELTGTWTMEGNKLVGKFKRVDNGKELIAVREISGNELIQTYTYEGVEAKRIFKKE
modifications: acrylodan label
notes: acrylodan-labeled rI-FABP mutein: Y14 I, L38 I, L72 V, Y117 wt
ΔR/ΔRAD2 AA [1]: 0.7 | ΔR/ΔRAD2 PA [2]: 0.8 | ΔR/ΔRAD2 LA [3]: 0.9 | ΔR/ΔRAD2 OA [4]: 0.4 | ΔR/ΔRAD2 LNA [5]: 0.9

B2: L1P16 G10: acrylodan-labeled rI-FABP mutein: Y14 W, L38 wt, L72 M, Y117 A (protein, UniProt P02693 2-132, looked up, variant Y14W L72M Y117A)
Fatty acid-binding protein, …: AFDGTWKVDRNENWEKFMEKMGINVVKRKLGAHDNLKLTITQEGNKFTVKESSNFRNIDVVFELGVDFAYSMADGTELTGTWTMEGNKLVGKFKRVDNGKELIAVREISGNELIQTATYEGVEAKRIFKKE
modifications: acrylodan label
notes: acrylodan-labeled rI-FABP mutein: Y14 W, L38 wt, L72 M, Y117 A
ΔR/ΔRAD2 AA [1]: 0.9 | ΔR/ΔRAD2 PA [2]: 0.8 | ΔR/ΔRAD2 LA [3]: 1.1 | ΔR/ΔRAD2 OA [4]: 0.7 | ΔR/ΔRAD2 LNA [5]: 1.3

B3: L1P8 H2: acrylodan-labeled rI-FABP mutein: Y14 M, L38 M, L72 W, Y117 wt (protein, UniProt P02693 2-132, looked up, variant Y14M L38M L72W)
Fatty acid-binding protein, …: AFDGTWKVDRNENMEKFMEKMGINVVKRKLGAHDNLKMTITQEGNKFTVKESSNFRNIDVVFELGVDFAYSWADGTELTGTWTMEGNKLVGKFKRVDNGKELIAVREISGNELIQTYTYEGVEAKRIFKKE
modifications: acrylodan label
notes: acrylodan-labeled rI-FABP mutein: Y14 M, L38 M, L72 W, Y117 wt
ΔR/ΔRAD2 AA [1]: −1.3 | ΔR/ΔRAD2 PA [2]: −0.6 | ΔR/ΔRAD2 LA [3]: −1.5 | ΔR/ΔRAD2 OA [4]: −1.7 | ΔR/ΔRAD2 LNA [5]: −1.3

B4: L1P5 A10: acrylodan-labeled rI-FABP mutein: Y14 wt, L38 wt, L72 wt, Y117 A (protein, UniProt P02693 2-132, looked up, variant Y117A)
Fatty acid-binding protein, …: AFDGTWKVDRNENYEKFMEKMGINVVKRKLGAHDNLKLTITQEGNKFTVKESSNFRNIDVVFELGVDFAYSLADGTELTGTWTMEGNKLVGKFKRVDNGKELIAVREISGNELIQTATYEGVEAKRIFKKE
modifications: acrylodan label
notes: acrylodan-labeled rI-FABP mutein: Y14 wt, L38 wt, L72 wt, Y117 A
ΔR/ΔRAD2 AA [1]: 1.5 | ΔR/ΔRAD2 PA [2]: 0.4 | ΔR/ΔRAD2 LA [3]: 1.2 | ΔR/ΔRAD2 OA [4]: 1.1 | ΔR/ΔRAD2 LNA [5]: 0.7

B5: L1P1 F7: acrylodan-labeled rI-FABP mutein: Y14 L, L38 M, L72 wt, Y117 F (protein, UniProt P02693 2-132, looked up, variant Y14L L38M Y117F)
Fatty acid-binding protein, …: AFDGTWKVDRNENLEKFMEKMGINVVKRKLGAHDNLKMTITQEGNKFTVKESSNFRNIDVVFELGVDFAYSLADGTELTGTWTMEGNKLVGKFKRVDNGKELIAVREISGNELIQTFTYEGVEAKRIFKKE
modifications: acrylodan label
notes: acrylodan-labeled rI-FABP mutein: Y14 L, L38 M, L72 wt, Y117 F
ΔR/ΔRAD2 AA [1]: 0.9 | ΔR/ΔRAD2 PA [2]: 0.5 | ΔR/ΔRAD2 LA [3]: 0.9 | ΔR/ΔRAD2 OA [4]: 0.5 | ΔR/ΔRAD2 LNA [5]: 1.0

B6: L1P7 H4: acrylodan-labeled rI-FABP mutein: Y14 I, L38 M, L72 W, Y117 wt (protein, UniProt P02693 2-132, looked up, variant Y14I L38M L72W)
Fatty acid-binding protein, …: AFDGTWKVDRNENIEKFMEKMGINVVKRKLGAHDNLKMTITQEGNKFTVKESSNFRNIDVVFELGVDFAYSWADGTELTGTWTMEGNKLVGKFKRVDNGKELIAVREISGNELIQTYTYEGVEAKRIFKKE
modifications: acrylodan label
notes: acrylodan-labeled rI-FABP mutein: Y14 I, L38 M, L72 W, Y117 wt
ΔR/ΔRAD2 AA [1]: −1.0 | ΔR/ΔRAD2 PA [2]: −0.6 | ΔR/ΔRAD2 LA [3]: −1.3 | ΔR/ΔRAD2 OA [4]: −1.4 | ΔR/ΔRAD2 LNA [5]: −1.1

B7: L1P14 A9: acrylodan-labeled rI-FABP mutein: Y14 L, L38 wt, L72 G, Y117 I (protein, UniProt P02693 2-132, looked up, variant Y14L L72G Y117I)
Fatty acid-binding protein, …: AFDGTWKVDRNENLEKFMEKMGINVVKRKLGAHDNLKLTITQEGNKFTVKESSNFRNIDVVFELGVDFAYSGADGTELTGTWTMEGNKLVGKFKRVDNGKELIAVREISGNELIQTITYEGVEAKRIFKKE
modifications: acrylodan label
notes: acrylodan-labeled rI-FABP mutein: Y14 L, L38 wt, L72 G, Y117 I
ΔR/ΔRAD2 AA [1]: 0.8 | ΔR/ΔRAD2 PA [2]: 0.2 | ΔR/ΔRAD2 LA [3]: 0.8 | ΔR/ΔRAD2 OA [4]: 0.4 | ΔR/ΔRAD2 LNA [5]: 0.8

B8: L1P11 F12: acrylodan-labeled rI-FABP mutein: Y14 L, L38 I, L72 wt, Y117 wt (protein, UniProt P02693 2-132, looked up, variant Y14L L38I)
Fatty acid-binding protein, …: AFDGTWKVDRNENLEKFMEKMGINVVKRKLGAHDNLKITITQEGNKFTVKESSNFRNIDVVFELGVDFAYSLADGTELTGTWTMEGNKLVGKFKRVDNGKELIAVREISGNELIQTYTYEGVEAKRIFKKE
modifications: acrylodan label
ΔR/ΔRAD2 AA [1]: 1.0 | ΔR/ΔRAD2 PA [2]: 0.7 | ΔR/ΔRAD2 LA [3]: 1.1 | ΔR/ΔRAD2 OA [4]: 0.7 | ΔR/ΔRAD2 LNA [5]: 1.2

B9: L1P9 G10: acrylodan-labeled rI-FABP mutein: Y14 wt, L38 I, L72 G, Y117 wt (protein, UniProt P02693 2-132, looked up, variant L38I L72G)
Fatty acid-binding protein, …: AFDGTWKVDRNENYEKFMEKMGINVVKRKLGAHDNLKITITQEGNKFTVKESSNFRNIDVVFELGVDFAYSGADGTELTGTWTMEGNKLVGKFKRVDNGKELIAVREISGNELIQTYTYEGVEAKRIFKKE
modifications: acrylodan label
ΔR/ΔRAD2 AA [1]: 1.0 | ΔR/ΔRAD2 PA [2]: 0.4 | ΔR/ΔRAD2 LA [3]: 0.8 | ΔR/ΔRAD2 OA [4]: 0.9 | ΔR/ΔRAD2 LNA [5]: 0.7

B10: L1P12 G10: acrylodan-labeled rI-FABP mutein: Y14 I, L38 wt, L72 wt, Y117 wt (protein, UniProt P02693 2-132, looked up, variant Y14I)
Fatty acid-binding protein, …: AFDGTWKVDRNENIEKFMEKMGINVVKRKLGAHDNLKLTITQEGNKFTVKESSNFRNIDVVFELGVDFAYSLADGTELTGTWTMEGNKLVGKFKRVDNGKELIAVREISGNELIQTYTYEGVEAKRIFKKE
modifications: acrylodan label
ΔR/ΔRAD2 AA [1]: 0.8 | ΔR/ΔRAD2 PA [2]: 0.8 | ΔR/ΔRAD2 LA [3]: 0.9 | ΔR/ΔRAD2 OA [4]: 0.5 | ΔR/ΔRAD2 LNA [5]: 1.0

B11: L1P3 D6: acrylodan-labeled rI-FABP mutein: Y14 L, L38 wt, L72 wt, Y117 wt (protein, UniProt P02693 2-132, looked up, variant Y14L)
Fatty acid-binding protein, …: AFDGTWKVDRNENLEKFMEKMGINVVKRKLGAHDNLKLTITQEGNKFTVKESSNFRNIDVVFELGVDFAYSLADGTELTGTWTMEGNKLVGKFKRVDNGKELIAVREISGNELIQTYTYEGVEAKRIFKKE
modifications: acrylodan label
ΔR/ΔRAD2 AA [1]: 0.9 | ΔR/ΔRAD2 PA [2]: 0.5 | ΔR/ΔRAD2 LA [3]: 0.8 | ΔR/ΔRAD2 OA [4]: 0.5 | ΔR/ΔRAD2 LNA [5]: 0.9

B12: L1P17 A8: acrylodan-labeled rI-FABP mutein: Y14 wt, L38 M, L72 G, Y117 F (protein, UniProt P02693 2-132, looked up, variant L38M L72G Y117F)
Fatty acid-binding protein, …: AFDGTWKVDRNENYEKFMEKMGINVVKRKLGAHDNLKMTITQEGNKFTVKESSNFRNIDVVFELGVDFAYSGADGTELTGTWTMEGNKLVGKFKRVDNGKELIAVREISGNELIQTFTYEGVEAKRIFKKE
modifications: acrylodan label
notes: acrylodan-labeled rI-FABP mutein: Y14 wt, L38 M, L72 G, Y117 F
ΔR/ΔRAD2 AA [1]: 1.3 | ΔR/ΔRAD2 PA [2]: 0.4 | ΔR/ΔRAD2 LA [3]: 0.8 | ΔR/ΔRAD2 OA [4]: 0.7 | ΔR/ΔRAD2 LNA [5]: 0.7

B13: L1P8 D4: acrylodan-labeled rI-FABP mutein: Y14 M, L38 wt, L72 M, Y117 A (protein, UniProt P02693 2-132, looked up, variant Y14M L72M Y117A)
Fatty acid-binding protein, …: AFDGTWKVDRNENMEKFMEKMGINVVKRKLGAHDNLKLTITQEGNKFTVKESSNFRNIDVVFELGVDFAYSMADGTELTGTWTMEGNKLVGKFKRVDNGKELIAVREISGNELIQTATYEGVEAKRIFKKE
modifications: acrylodan label
notes: acrylodan-labeled rI-FABP mutein: Y14 M, L38 wt, L72 M, Y117 A
ΔR/ΔRAD2 AA [1]: 1.6 | ΔR/ΔRAD2 PA [2]: 0.9 | ΔR/ΔRAD2 LA [3]: 2.0 | ΔR/ΔRAD2 OA [4]: 1.1 | ΔR/ΔRAD2 LNA [5]: 2.0
